The record followed here is publication PMC4041088.

The target in the assay is FLAG-tagged murine lipin 1b (murine) (UniProt Q91ZP3). Briefly: atomic force microscopy.

“FLAG-tagged murine lipin 1b (from UniProt Q91ZP3 1-924) (enzyme)” displayed a stoichiometry N of 12.

In general, stoichiometry N refers to the number of molecules, sites or subunits per partner or assembly.
